One assay deals with T1, human CD22-His protein (Homo sapiens, UniProt P20273).
T1 construct: His; purchased Sino Biological Inc., Beijing, China
T1 sequence (P20273 20-847): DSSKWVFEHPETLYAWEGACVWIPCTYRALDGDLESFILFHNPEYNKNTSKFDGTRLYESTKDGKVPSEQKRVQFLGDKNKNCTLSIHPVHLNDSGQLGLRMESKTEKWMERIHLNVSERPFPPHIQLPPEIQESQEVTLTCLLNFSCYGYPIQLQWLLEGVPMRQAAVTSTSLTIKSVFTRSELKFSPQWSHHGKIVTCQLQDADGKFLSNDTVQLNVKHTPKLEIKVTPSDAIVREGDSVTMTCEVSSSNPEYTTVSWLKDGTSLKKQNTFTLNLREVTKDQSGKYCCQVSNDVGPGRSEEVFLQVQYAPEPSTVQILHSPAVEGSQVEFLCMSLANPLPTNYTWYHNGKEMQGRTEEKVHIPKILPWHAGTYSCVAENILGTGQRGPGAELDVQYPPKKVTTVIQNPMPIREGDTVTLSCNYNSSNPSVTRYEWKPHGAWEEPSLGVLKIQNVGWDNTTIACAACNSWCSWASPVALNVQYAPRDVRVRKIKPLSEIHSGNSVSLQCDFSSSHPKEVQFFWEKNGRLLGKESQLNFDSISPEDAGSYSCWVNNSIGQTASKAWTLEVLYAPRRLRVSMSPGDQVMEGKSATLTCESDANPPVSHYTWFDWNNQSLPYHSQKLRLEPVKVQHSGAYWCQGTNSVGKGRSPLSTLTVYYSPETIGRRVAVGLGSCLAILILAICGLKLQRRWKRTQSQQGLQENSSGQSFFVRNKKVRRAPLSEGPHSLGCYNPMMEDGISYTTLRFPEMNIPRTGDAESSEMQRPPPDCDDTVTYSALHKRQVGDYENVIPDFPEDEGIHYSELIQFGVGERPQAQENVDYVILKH
As to the kind of experiment: ELISA analysis using anti-CD22 scFv-Cκ-HA fusion protein. The note with it: serial dilutions, coated human CD22-His 100 ng/well, FIG. 1. The format is binding. On the procedure:
Microtiter plates (Corning Inc., MA, USA) were coated overnight at 4° C. with human CD22-His protein (100 ng/well, Sino Biological Inc., Beijing, China). The wells were blocked for 1 hour at 37° C. with 150 μl of 3% BSA (w/v) in PBS, and serial dilutions of the anti-CD22 scFv-Cκ-HA fusion protein, prepared in 3% BSA in PBS, were added to each well. After incubation for 1.5 hours at 37° C., the plates were washed three times with PBST (PBS containing 0.05% Tween-20), followed by incubation for 1 hour at 37° C. with an HRP-conjugated anti-human CK antibody (Millipore, CA, USA). The plates were washed three times with PBST, and the amount of bound antibody was determined by adding 2,2′-azino-bis(3-ethylbenzothiazoline-6-sulfonic acid) (Thermo Fisher Scientific Inc., MA, USA). The resulting OD405 was measured using a microplate spectrophotometer.
(In general: An ELISA detects its analyte on a solid surface through an enzyme-linked reagent.)

For a further assay, the system named is OCI-Ly7 cells. Kind of assay: Flow cytometry analysis using anti-CD22 scFv-Cκ-HA fusion protein. The format is binding, human. Particulars: scFv-Cκ-HA fusion protein 0.25 μM; FIG. 2. On the procedure:
OCI-Ly7 cells were aliquoted into 1.5 ml tubes at a density of 3×10^5 cells per tube. The anti-CD22 scFv-Cκ-HA fusion protein (0.25 μM) was added to each tube, followed by incubation on ice for 30 minutes. After washing twice with MACS buffer (Miltenyi Biotec), the cells were incubated with Alexa Fluor 647-labeled mouse anti-HA antibody (Clone #912426, R&D Systems, MN, USA) on ice for 30 minutes. Then, the cells were washed twice with MACS buffer, resuspended in 150 μL of 1% paraformaldehyde in MACS buffer, and stored overnight at 4° C. The cells were analyzed by flow cytometry using a FACS Canto II instrument (BD Bioscience, San Jose, CA, USA). For each sample, 10,000 cells were analyzed.
Background: In flow cytometry, cells or beads pass a laser one at a time.

Here are results for one molecule from patent US20260176354A1, “ANTIBODY BINDING TO CD22, AND BISPECIFIC ANTIBODY, CHIMERIC ANTIGEN RECEPTOR AND ANTIBODY-DRUG CONJUGATE COMPRISING SAME, AND USE THEREOF” (THE ASAN FOUNDATION, priority 2022, published 2026).

B1: CI4-47: recombinant anti-CD22 scFv-Cκ-HA fusion protein (protein)
scFv: LTQPSSVSANPGETVKITCSGGSGGYGWYQQKSPGSAPVSLIYDNDQRPSDIPSRFSGSKSGSTGTLTITGVQADDEAVYYCGSYDSSYVGIFGAGTTLTVLGGGGSGGGGSGGGGSAVTLDESGGGLQTPGGALSLVCKASGFTFSNYCMQWVRQAPGKGLEWVAGIGSSGTGTYYGSAVRGRATISRDNGQSTVRLQLNNLRAEDTGTYYCARDYGSDSGCGWGIYAGEIDAWGHGTEVIVSSGGGGSGGGGSGGGGSRTVAAPSVFIFPPSDEQLKSGTASVVCLLNNFYPREAKVQWKVDNALQSGNSQESVTEQDSKDSTYSLSSTLTLSKADYEKHKVYACEVTHQGLSSPVTKSFNRGESGGAYPYDVPDYAS
For B1, the “binding to CD22 (enzyme immunoassay, OD405)” value with human CD22-His protein is given as “bind well”. Besides, in the assay on OCI-Ly7 cells, the “binding to OCI-Ly7 cells (flow cytometry)” value is “strong binding”.
